Numbering of substitutions follows the chain as printed. Names may count otherwise.

Substrate in this data set: O=C(O)[C@@H]1CCC=N1
The experiment in a line: purified protein. It counts as biochemical, Geobacter sulfurreducens. The conditions noted are these: GSALDH site; NAD+ fixed at saturating concentration; L-P5C 0-3.5 mM.

B1: GsPutA (Geobacter sulfurreducens PCA) (protein)
chain: MLNSELNTKIVNRGKEFFGSISGEKPSLFNKGAWMGKAMDWSMQNEQFKIQMFRFVDVFPSLTTSKLLTEHIREYFGNEQDMPAFMSTGAKVAGMLGSFGGAVLNKVLTSNIEEMARQFIVGETTKEAVKNLEKLRKDGFAAVVDVLGEATLSEEEAEVYTNTYLELLEALKKEQGSWKGLPGKGGDPGLDWGHAPKVNIAVKPTALFCLANPQDFEGSVVAILDRMRRIFKKVMELNGFLCIDMESYRHKEIILEVFRRLKLEYRDYPHLGIVLQAYLKDNDKDLDDLLAWAKEHKVQISVRLVKGAYWDYETVKAKQNDWEVPVWTIKAESDAAYERQARKILENHQICHFACASHNIRTISAVMEMARELNVPEDRYEFQVLYGMAEPVRKGILKVAGRIRLYAPYGNMVPGMGYLVRRLLENTANESFLRQSFAEDAQIERLLEDPAVTVERERAARAAKPKKERKGLGGLPPFNNEAMVDFTRADHRAAFPKHIAQVRTQLGKTYPLFINGKEVRTNDLIPTVNPNKPSEVLGQICQAGTTEVGDAIAAAKAAFPAWRDTDPRTRAEYLLKAAQAARKRLFELSAWQVLEIGKQWDQAYADVTEAIDFLEYYAREMIRLGQPQRVGHAPGELNHYFYEPKGVAAVIAPWNFPLAISMGMASAAIVTGNCVVFKPSGITSIIGWHLVELFREAGLPEGVFNFTPGRGSVMGDYLVDHPDISLIAFTGSMETGLRIIERAAKVHPGQANVKKIISEMGGKNAIIIDDDADLDEAVPHVLYSAFGFQGQKCSACSRVIVLDAVYDKFIERLVSMAKATKVGPSEDPANYMGAVADDKAMKSIKEYAEIGKREGHVLYESPVPAGEGYFVPMTIIGGIKPEHRIAQEEIFGPVLAVMRAKDFDQAIEWANSTQFALTGGIFSRSPEHLAKARREFRVGNLYINRNNTGALVERQPFGGARMSGVGTKAGGPDYLLHFMDPRVVTENTMRRGFAPIEEDDDWVD
Turning to B1, the Km – broadly, the substrate concentration at which the rate is half of its maximum – was 30.0 ± 13.0 µM and the kcat (in general, the maximal rate divided by the concentration of active sites) stood at 4.7 ± 0.2 s⁻¹.

B2: GsPutA (Geobacter sulfurreducens PCA; A206W) (protein)
chain: B1 chain with A206W
For B2, the Km came out at 65.0 ± 18.3 µM and the turnover number (kcat) is 6.0 ± 0.2 s⁻¹.

These data come from PMC8559791.
